Experimental data as given in the RNAGym collection of RNA variant scans (doi:10.1073/pnas.2313332121).
Variants at the floor of the assay were thinned out.

B1: TPR 5TU (parent)
chain: GGAUCUUCUCGAUCUAACAAAAAAGACAAAUCUGCCACAAAGCUUGAGAGCAUCUUCGGAUGCAGAGGCGGCAGCCUUCGGUGGCGCGAUAGCGCCAACGUUCUCAACUAUGACACGCAAAACGCGUGCUCCGUUGAAUGGAGUUUAUCAUG

Variants of: B1
Assay: polymerase ribozyme fitness, log enrichment relative to wild type (log ratio); higher = more active; in vitro selection for triplet polymerase activity
In short: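 To select mutant libraries of each subunit of a heterodimeric triplet polymerase ribozyme, built by PCR and transcribed, each was annealed with a biotinylated primer, partner subunit and triplets, then incubated frozen at −7 °C. Extended constructs were gel-excised, captured on streptavidin beads and amplified by RT-PCR, in one round carried out in triplicate. Illumina sequencing of input and output libraries kept genotypes with ≥10 input reads and ≥1 read per output. Fitness is the base-2 logarithm of genotype enrichment relative to wild-type enrichment, from inverse-variance-weighted replicate averages.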

Variant	polymerase ribozyme fitness (log ratio)
C85A C87U	≤ -4.2
C85G A107U	≤ -4.2
G83C C129G A137C U145C	≤ -4.2
G84C A97G	-1.95
C85G C93A	≤ -4.2
C79G U134C U146C	-4.11
U77G G84C U148G	≤ -4.2
C85G C87G A98U A137G U144C	≤ -4.2
G80A C93G C96U	-3.96
G84C G94A	-4.07
G83C U148A	-3.1
G81A C85G	-1.86
G83A G92U C118G	-1.41
G83A A107G G136A G140A	≤ -4.2
G83C C96A A150C	-3.75
G84A U90A A121U	≤ -4.2
G84A A91U	≤ -4.2
U82A C93G G126U	-2.84
C79U A89C	-3.38
G83C U104G	-2.14
C85A C125G	-1.13
G83A U90C	-3.51
G83A G88U U111G U135A	≤ -4.2
G80C G92U	-3.97

Variant	polymerase ribozyme fitness (log ratio)
G80U C108G	≤ -4.2
C76U G83C C118U	-0.363
G83A C95A A113U	-3.12
C85A G126U	-0.409
C85A G126C	-0.131
G83U G140U G152U	-3.93
G83C C105G	-2.69
G84A A98G	-2.7
C85A C96U A119C	-0.783
U78G G88U	≤ -4.2
U82G C93U C131G G140U U146A	≤ -4.2
U78A C79U U82A G94U C96G G126A G141U	≤ -4.2
G83A A115U	-1.25
C76U C116G	0.541
G84U U148A	≤ -4.2
G80A	-0.0737
G80U	-0.409
G80C	-3.5
U82C C96G A120U U127G	-2.72
C85G A106C G141U G143U U151A	≤ -4.2
C85A A119U A122U G141A	0.358
G83U C87U A89C G141A A142G	≤ -4.2
G80A C96G	-1.11
C85G C114A A150C	≤ -4.2

Variant	polymerase ribozyme fitness (log ratio)
G84U C95G A122U G152C	-3.55
U78G C79U G94C A115C G143A	≤ -4.2
G80U A91G A110G	≤ -4.2
G83A A89G U109G U130G C132G	≤ -4.2
G83C A113C	-3.35
G80A A89U C95U A120G	-1.11
G83C A147U	0.501
G81C A119U G128U	-2.99
G83C G128A	-3.88
G83A G124C	-2.64
G83U C96U	-0.875
G81U A97U C105U	0.976
G83C A97G C108G	≤ -4.2
G83U A98U C105U	-0.156
C76U U101A	-1.35
G84U A106G U109A A121U C131A G141A U145A	≤ -4.2
U82A C99A C118U	-1.42
U77A G88U C103G U151C	≤ -4.2
G80A C99G U127C	-2.19
G83C A150G	-2.66
U77G G84A	≤ -4.2
C79A C87G A113G	≤ -4.2
U78G C85G G140A	≤ -4.2
G84U G86A U90A G100A	≤ -4.2

Variant	polymerase ribozyme fitness (log ratio)
C76U G86A	-0.246
U82A C93U U145G	-2.53
G84A A115U G126A	-4.17
C85A A97U G152A	≤ -4.2
G83C C95U G126A	-2.05
G84A A113U G140A	≤ -4.2
G83C A110G	-3.65
C85A A115C	-1.64
G83U A120C G141A	-0.169
U77C C116U	-3.64
C76U C93U A97U	-0.802
G84U U135A	-2.85
G84A U127C	-1.91
G81C G92A	-3.5
G84A G100A A106G A113U G117U C123U A142C	≤ -4.2
G83C G94U	-2.72
G81U U82C C95U A120U	-0.64
C79U C85G A138G	≤ -4.2
G83C G117A	0.556
G84A U139G	-0.68
U77A G94C A98U	≤ -4.2
G83U A110U	-4.17
C79G C85A A138G U148A	≤ -4.2
G83A A150C	-3.77

Variant	polymerase ribozyme fitness (log ratio)
G83A A150U	0.356
G81A G94A G143U	-2.83
G83A U134A	-2.04
U82C C96A	-0.964
C85A C116G	-0.2
U82C C95G U148C	-4.02
U82C C95A	-1.46
U82G A97G A98G C118A A119C G140C	≤ -4.2
G84U C116A	-0.432
C85A G136A	-1.05
U82G C87U	-0.516
G83C A98G	-3.71
C85G A115U A121G A142G U144G	≤ -4.2
G81A A106U	-1.09
G83A C108U C125G	-3.77
G81A C87U	-1.73
G84U U144G	-0.698
U77G C79G G83C	≤ -4.2
C76U U144A	-1.08
G83C C96U C108G G143U	≤ -4.2
G84A G92C	-3.25
G83U A122C G133C A147C	-2.76
G80A G88C A113U C116U U148A	≤ -4.2
U78G C96U A107U G141C A150G	≤ -4.2

Variant	polymerase ribozyme fitness (log ratio)
G81C G94A	-0.416
G80A G126A	-0.283
G81A C95U	-1.88
G81C G83U G133A	-3.88
G80A C85G	-1.38
G84A A91U U102G U144A	≤ -4.2
G81U C85U	-0.466
G83A C105U A110G U134C	-3.98
C85G A122G C149A	≤ -4.2
G83U A97G A110U G117U	-3.7
U77A C95U	≤ -4.2
G83U A89G C103A C108G U134C A142C	≤ -4.2
G80A G92C	-0.857
G80A G92U	-3.2
G84A U148G	-3.25
G81A U144C	-1.41
U82A G83C C123U	-1.12
G81A A97G C125U	-0.572
C76U C99G	-0.789
G84U G117U	-1.61
G81U C87A A107G U144G	≤ -4.2
G83A U151G	-3.97
G83C G92U A137G	-3.45
G84C G92U A150U	-2.39

Variant	polymerase ribozyme fitness (log ratio)
U82A C95G C118U G126C	-2.5
G83U G133C	-2.09
C85A A142U	-1.59
U77G G84A G117U U135G	≤ -4.2
U82A A113C G117U G141C	≤ -4.2
C85A C87U A98C	-3.62
G83C G136U	-2.46
G84A A89U G136U	-2.91
G83U G126A U148A	≤ -4.2
C76U U77G G81U G92A C123A	≤ -4.2
C79U G140U	-3.68
U78C G84A G136U	-3.14
U78G G86U	≤ -4.2
G83A G88A A91G G112U G140U G143C	≤ -4.2
G83U C95G G124U U148C	≤ -4.2
G84A A97U U134A	-3.23
G81A C87U A97C U101A U104G C116U	-4.01
G83C	-0.934
G83A	-0.336
G83U	-0.478
C76U U78C A106C	-1.92
G83U A120U G141C	-0.804
G84A C118U	-0.13
